Paper PMC8379176 (Nature Communications, 2021)
Where a chain is given by its changes, count along the chain named. In names and notes the source's numbering stands.

B1: WT (protein, UniProt Q92847 1-366, looked up)
Growth hormone secretagogue …: MWNATPSEEPGFNLTLADLDWDASPGNDSLGDELLQLFPAPLLAGVTATCVALFVVGIAGNLLTMLVVSRFRELRTTTNLYLSSMAFSDLLIFLCMPLDLVRLWQYRPWNFGDLLCKLFQFVSESCTYATVLTITALSVERYFAICFPLRAKVVVTKGRVKLVIFVIWAVAFCSAGPIFVLVGVEHENGTDPWDTNECRPTEFAVRSGLLTVMVWVSSIFFFLPVFCLTVLYSLIGRKLWRRRRGDAVVGASLRDQNHKQTVKMLAVVVFAFILCWLPFHVGRYLFSKSFEPGSLEIAQISQYCNLVSFVLFYLSAAINPILYNIMSKKYRVAVFRLLGFEPFSQRKLSTLKDESSRAWTESSINT
B2: F3097.39A (protein)
chain: B1 Growth hormone secretagogue … with F309A
modifications: SNAP tag labelled with SNAP-Lumi4-Tb; left off: SNAP, N-terminal, kept
B3: N3057.35A (protein)
chain: B1 Growth hormone secretagogue … with N305A
modifications: left off: SNAP, N-terminal, kept
B4: L37N-termA (protein)
chain: B1 Growth hormone secretagogue … with L37A
modifications: SNAP tag labelled with SNAP-Lumi4-Tb; left off: SNAP, N-terminal, kept
B5: L1814.63A (protein)
chain: B1 Growth hormone secretagogue … with L181A
modifications: SNAP tag labelled with SNAP-Lumi4-Tb; left off: SNAP, N-terminal, kept
B6: A204ECL2E (protein, UniProt Q92847 1-366, looked up, variant A204E)
Growth hormone secretagogue …: B1 Growth hormone secretagogue … with A204E
B7: L1032.64A (protein)
chain: B1 Growth hormone secretagogue … with L103A
modifications: SNAP tag labelled with SNAP-Lumi4-Tb; left off: SNAP, N-terminal, kept
B8: Q3027.32A (protein)
chain: B1 Growth hormone secretagogue … with Q302A
modifications: SNAP tag labelled with SNAP-Lumi4-Tb; left off: SNAP, N-terminal, kept
B9: R1022.63A (protein)
chain: B1 Growth hormone secretagogue … with R102A
modifications: SNAP tag labelled with SNAP-Lumi4-Tb; left off: SNAP, N-terminal, kept
B10: R2836.55A (protein)
chain: B1 Growth hormone secretagogue … with R283A
modifications: SNAP tag labelled with SNAP-Lumi4-Tb; left off: SNAP, N-terminal, kept
B11: E197ECL2A (protein)
chain: B1 Growth hormone secretagogue … with E197A
modifications: SNAP tag labelled with SNAP-Lumi4-Tb; left off: SNAP, N-terminal, kept
B12: F2866.58A (protein)
chain: B1 Growth hormone secretagogue … with F286A
modifications: SNAP tag labelled with SNAP-Lumi4-Tb; left off: SNAP, N-terminal, kept
B13: D992.60A (protein)
chain: B1 Growth hormone secretagogue … with D99A
modifications: SNAP tag labelled with SNAP-Lumi4-Tb; left off: SNAP, N-terminal, kept
B14: F38N-termA (protein)
chain: B1 Growth hormone secretagogue … with F38A
modifications: SNAP tag labelled with SNAP-Lumi4-Tb; left off: SNAP, N-terminal, kept
B15: F2796.51A (protein)
chain: B1 Growth hormone secretagogue … with F279A
modifications: SNAP tag labelled with SNAP-Lumi4-Tb; left off: SNAP, N-terminal, kept
B16: I1784.60A (protein)
chain: B1 Growth hormone secretagogue … with I178A
modifications: SNAP tag labelled with SNAP-Lumi4-Tb; left off: SNAP, N-terminal, kept
B17: F3127.42A (protein)
chain: B1 Growth hormone secretagogue … with F312A
modifications: SNAP tag labelled with SNAP-Lumi4-Tb; left off: SNAP, N-terminal, kept
B18: E1243.33A (protein)
chain: B1 Growth hormone secretagogue … with E124A
modifications: SNAP tag labelled with SNAP-Lumi4-Tb; left off: SNAP, N-terminal, kept

target: HA-tagged ghrelin receptor F286D (human) (UniProt Q92847); assay: not given; conditions: not given

With “ghrelin (octanoylated at Ser3) (peptide)” the fold decrease in calcium response of HEK293 cells, activity of ghrelin against the WT receptor was over 250 fold.

system: ghrelin receptor (WT or mutants); assay: Cell-surface expression assay (FACS); type: cell-based, human; conditions: replicate 1
Protocol: Cell-surface expression for each mutant was monitored by a fluorescence-activated cell sorting (FACS) assay. In brief, the expressed cells were incubated with mouse anti-HA-FITC antibody (Sigma) at a dilution of 1:200 for 20 min at 4 °C, and then a 9-fold excess of PBS was added to cells. […] The FACS data were analyzed by BD Accuri C6 software 1.0.264.21. The gating strategy and calculation method of expression are shown in Supplementary Fig. 11.
Supplementary Figure 11 | Gating strategy of cell surface expression assay. Circle a gate P1 in the scatter map (black circle). The cells shown in the histogram map are all the cells in the gate P1 in the scatter map. Fluorescence signal intensity (FITC) is presented by […]. With the Blank sample as the reference value of background fluorescence signal (a), the fluorescence signal histogram map is divided into two regions. The left region represents the negative cell community (FITC-), while the right region represents the positive cell community (FITC+). The expression level of cell surface wild-type (WT) ghrelin receptor (b) can be calculated as follows:
(M(FITC+)-M(FITC-))×(FITC+% Parent). M, mean fluorescence intensity. The expression level of the ghrelin receptor mutant is calculated similarly to WT receptor and then is normalized with the WT to calculate the relative expression value. […]

First: B1
Second: B2
The Cell-surface expression of the first is higher: 98.69% for the first, 77.16% for the second.

Compared with B3, B4 is higher in Cell-surface expression: 83.54% for the first, 100.75% for the second.

Going from B5 to B6, the Cell-surface expression falls from 94.17% to 81.34%.

Compared with B7, B8 is lower in Cell-surface expression: 102.32% for the first, 99.52% for the second.

Going from B9 to B10, the Cell-surface expression falls from 101.47% to 56.22%.

First: B11
Second: B12
The Cell-surface expression of the first is higher: 101.89% for the first, 90.14% for the second.

Compared with B13, B14 is lower in Cell-surface expression: 101.25% for the first, 92.98% for the second.

First: B15
Second: B16
The Cell-surface expression of the first is higher: 103.70% for the first, 94.94% for the second.

Going from B17 to B18, the Cell-surface expression rises from 89.96% to 93.73%.

same assay, conditions: replicate 2

First: B1
Second: B2
The Cell-surface expression of the first is higher: 96.95% for the first, 85.09% for the second.

First: B3
Second: B4
The Cell-surface expression of the first is lower: 81.81% for the first, 98.96% for the second.

First: B5
Second: B6
The Cell-surface expression of the first is higher: 98.71% for the first, 81.24% for the second.

Going from B7 to B8, the Cell-surface expression falls from 103.70% to 91.82%.

Compared with B9, B10 is lower in Cell-surface expression: 87.96% for the first, 65.89% for the second.

Going from B11 to B12, the Cell-surface expression falls from 100.72% to 93.12%.

First: B13
Second: B14
The Cell-surface expression of the first is higher: 96.41% for the first, 95.22% for the second.

Going from B15 to B16, the Cell-surface expression rises from 100.07% to 100.59%.

First: B17
Second: B18
The Cell-surface expression of the first is lower: 82.57% for the first, 94.80% for the second.

same assay, conditions: replicate 3

First: B1
Second: B2
The Cell-surface expression of the first is higher: 107.34% for the first, 81.26% for the second.

First: B3
Second: B4
The Cell-surface expression of the first is lower: 86.10% for the first, 98.94% for the second.

Going from B5 to B6, the Cell-surface expression falls from 96.25% to 78.97%.

Compared with B7, B8 is lower in Cell-surface expression: 96.41% for the first, 87.39% for the second.

First: B9
Second: B10
The Cell-surface expression of the first is higher: 94.26% for the first, 64.91% for the second.

Compared with B11, B12 is lower in Cell-surface expression: 102.63% for the first, 89.15% for the second.

Going from B13 to B14, the Cell-surface expression rises from 90.24% to 93.15%.

Compared with B15, B16 is lower in Cell-surface expression: 101.03% for the first, 91.58% for the second.

Going from B17 to B18, the Cell-surface expression rises from 78.32% to 89.39%.

same assay, conditions: replicate 4

Going from B1 to B2, the Cell-surface expression falls from 98.90% to 79.68%.

Compared with B3, B4 is higher in Cell-surface expression: 86.24% for the first, 96.06% for the second.

First: B5
Second: B6
The Cell-surface expression of the first is higher: 95.38% for the first, 76.38% for the second.

Compared with B7, B8 is higher in Cell-surface expression: 91.52% for the first, 99.41% for the second.

Compared with B9, B10 is lower in Cell-surface expression: 99.21% for the first, 66.07% for the second.

Going from B11 to B12, the Cell-surface expression falls from 110.56% to 93.89%.

First: B13
Second: B14
The Cell-surface expression of the first is lower: 92.75% for the first, 94.06% for the second.

Going from B15 to B16, the Cell-surface expression falls from 106.36% to 96.01%.

Going from B17 to B18, the Cell-surface expression rises from 82.11% to 97.54%.

same assay, conditions: replicate 5

Compared with B1, B2 is lower in Cell-surface expression: 98.13% for the first, 76.65% for the second.

Compared with B3, B4 is higher in Cell-surface expression: 88.82% for the first, 97.45% for the second.

Going from B5 to B6, the Cell-surface expression falls from 113.13% to 75.96%.

Compared with B7, B8 is lower in Cell-surface expression: 101.60% for the first, 85.20% for the second.

Compared with B9, B10 is lower in Cell-surface expression: 100.61% for the first, 63.09% for the second.

Compared with B11, B12 is lower in Cell-surface expression: 103.22% for the first, 90.00% for the second.

Compared with B13, B14 is lower in Cell-surface expression: 94.78% for the first, 92.77% for the second.

First: B15
Second: B16
The Cell-surface expression of the first is higher: 95.20% for the first, 89.87% for the second.

Going from B17 to B18, the Cell-surface expression rises from 77.05% to 93.21%.

system: not given; assay: not given; conditions: cited from earlier work
From the text: Food intake is one of the most fundamental processes required for sustaining human life.

In the case of ghrelin, the “growth hormone-releasing activity” value is given as “potent growth hormone-releasing activity”.
